This passage reports Km, Vmax and kcat results from PMC10448171, “Photocycle alteration and increased enzymatic activity in genetically modified photoactivated adenylate cyclase OaPAC” (The Journal of Biological Chemistry, 2023).

Substrate in the series: Nc1ncnc2c1ncn2[C@@H]1O[C@H](COP(=O)(O)OP(=O)(O)OP(=O)(O)O)[C@@H](O)[C@H]1O
The series is described as follows: EnzChek pyrophosphate coupled assay, A360, Michaelis-Menten fit. It is filed as biochemical, Oxynema acuminatum. As to conditions: continuous illumination; 0-500 μM ATP; 1 μM enzyme. From the text:
EnzChek pyrophosphate coupled assay, A360, Michaelis-Menten fit on OaPAC

B1: OaPAC (Oxynema acuminatum PCC 6304; D67N) (protein)
chain: MKRLTYISKFSRPLSGDEIEAIGRISSQKNQQANVTGVLLCLDGIFFQILEGEAEKIDRIYERILANERHTDILCLKSEVEVQERMFPDWSMQTINLDENTDFLIRPIKVLLQTLTESHRILEKYTQPSIFKIISQGTNPLNIRPKAVEKIVFFSDIVSFSTFAEKLPVEEVVSVVNSYFSVCTAIITRQGGEVTKFIGDCVMAYFDGDCADQAIQASLDILMELEILRNSAPEGSPLRVLYSGIGLAKGKVIEGNIGSELKRDYTILGDAVNVAARLEALTRQLSQALVFSSEVKNSATKSWNFIWLTDSELKGKSESIDIYSIDNEMTRKSSGGLEIARNIGHYLERVGDRQPSQIFGVKSLPL
notes: full-length, 366 residues, homodimer; N-terminal BLUF domain and C-terminal class III AC domain; pCold-I (Ni-NTA purified), E. coli BL21(DE3); Superdex 200
In the case of B1, the Km (in general, the substrate concentration at which the rate is half of its maximum) came to 41 ± 5 µM; the Vmax (usually the top rate of the reaction or transport when substrate is in excess) was 0.100 ± 0.002 mM/min; the kcat – broadly, the maximal rate divided by the concentration of active sites – came to 0.8342 s⁻¹.

B2: OaPAC (Oxynema acuminatum PCC 6304) (protein)
chain: MKRLTYISKFSRPLSGDEIEAIGRISSQKNQQANVTGVLLCLDGIFFQILEGEAEKIDRIYERILADERHTDILCLKSEVEVQERMFPDWSMQTINLDENTDFLIRPIKVLLQTLTESHRILEKYTQPSIFKIISQGTNPLNIRPKAVEKIVFFSDIVSFSTFAEKLPVEEVVSVVNSYFSVCTAIITRQGGEVTKFIGDCVMAYFDGDCADQAIQASLDILMELEILRNSAPEGSPLRVLYSGIGLAKGKVIEGNIGSELKRDYTILGDAVNVAARLEALTRQLSQALVFSSEVKNSATKSWNFIWLTDSELKGKSESIDIYSIDNEMTRKSSGGLEIARNIGHYLERVGDRQPSQIFGVKSLPL
notes: as for B1
Regarding B2, the Michaelis-Menten constant (Km) amounted to 31 ± 1 µM, the Vmax was found to be 0.064 ± 0.007 mM/min and the kcat is 0.537 s⁻¹.
